The chains are these.
B1: CDC25B (parent)
chain: KSPIAPCSLDKRVILIFHCEFSSE
B2: TMEM106C (parent)
chain: YVTTNVSLIPPRSEQLVNFTGKAE
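Note: lentivirally expressed fusions sorted by FACS into six bins by GFP to DsRed ratio, PSI derived from sequencing read proportions per bin multiplied by bin number.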

The variants in one data set derive from B1. In words: protein stability index of a GFP-peptide fusion (GPS, HEK-293T) (PSI 1-6); higher = more stable. The following applies: c terminus: a fixed tail appended.
Turning to KSPIAPCSLDKGVILIFHCEFSSE, the protein stability index came out at 2.23.

Regarding KSPIAPCSLDKLVILIFHCEFSSE, the protein stability index amounted to 3.04.

Consider KSPIAPCSLDKNVILIFHCEFSSE, for which the protein stability index is 2.76.

In the case of KSPIAPCSLDKHVILIFHCEFSSE, the protein stability index came out at 2.79.

Turning to KSPIAPCSLDKSVILIFHCEFSSE, the protein stability index came to 4.14.

Take KSPIAPCSLDKFVILIFHCEFSSE: the protein stability index stood at 5.41.

Take KSPIAPCSLDKDVILIFHCEFSSE: the protein stability index was 3.43.

For KSPIAPCSLDKIVILIFHCEFSSE, the protein stability index worked out at 3.03.

Take FSPIAPCSLDKRVILIFHCEFSSE: the protein stability index was 2.7.

Take ISPIAPCSLDKRVILIFHCEFSSE: the protein stability index was 1.11.

With NSPIAPCSLDKRVILIFHCEFSSE, the protein stability index amounted to 1.96.

With PSPIAPCSLDKRVILIFHCEFSSE, the protein stability index was 3.88.

In the case of GSPIAPCSLDKRVILIFHCEFSSE, the protein stability index is 3.01.

Regarding SSPIAPCSLDKRVILIFHCEFSSE, the protein stability index came out at 3.48.

On to LSPIAPCSLDKRVILIFHCEFSSE, for which the protein stability index amounted to 1.86.

Consider KSPIAPCSLVKRVILIFHCEFSSE, for which the protein stability index stood at 2.67.

Take KSPIAPCSLWKRVILIFHCEFSSE: the protein stability index stood at 2.94.

Turning to KSPIAPCSLMKRVILIFHCEFSSE, the protein stability index is 2.48.

As for KSPIAPCSLHKRVILIFHCEFSSE, the protein stability index was found to be 2.05.

Take KSPIAPCSLAKRVILIFHCEFSSE: the protein stability index is 2.95.

In the case of KSPIAPCSLFKRVILIFHCEFSSE, the protein stability index amounted to 2.42.

For the variant KSPIAPCSLYKRVILIFHCEFSSE, the protein stability index amounted to 1.66.

For KSPIAPCSLIKRVILIFHCEFSSE, the protein stability index was 2.12.

With KSPIAPCSLPKRVILIFHCEFSSE, the protein stability index is 3.83.

On to KSPIAPCSLCKRVILIFHCEFSSE, for which the protein stability index came out at 2.23.

For the variant KSPIAPCSLQKRVILIFHCEFSSE, the protein stability index amounted to 1.71.

In the case of KSPIAPCSLGKRVILIFHCEFSSE, the protein stability index came out at 2.74.

For the variant KSPIAPCSLSKRVILIFHCEFSSE, the protein stability index amounted to 2.26.

For the variant KSPIAPCSLTKRVILIFHCEFSSE, the protein stability index came to 3.32.

KSPIAPCSLDKRVNLIFHCEFSSE: the protein stability index amounted to 1.96.

Regarding KSPIAPCSLDKRVHLIFHCEFSSE, the protein stability index was 3.76.

In the case of KSPIAPCSLDKRVALIFHCEFSSE, the protein stability index is 2.65.

With KSPIAPCSLDKRVDLIFHCEFSSE, the protein stability index came to 2.54.

As for KSPIAPCSLDKRVCLIFHCEFSSE, the protein stability index was 1.54.

As to KSPIAPCSLDKRVGLIFHCEFSSE, the protein stability index stood at 1.56.

KSPIAPCSLDKRVELIFHCEFSSE: the protein stability index is 2.07.

Take KSPIAPCSLDKRVLLIFHCEFSSE: the protein stability index is 1.95.

KSPIAPCSLDKRVTLIFHCEFSSE: the protein stability index was determined as 2.1.

Take KSPIAPCSLDKRVQLIFHCEFSSE: the protein stability index came to 1.1.

As for KSPIAPCSLDKRVRLIFHCEFSSE, the protein stability index was 1.79.

With KSPIAPCSLDKRVSLIFHCEFSSE, the protein stability index worked out at 1.94.

In the case of KSPIAPCSLDKRVPLIFHCEFSSE, the protein stability index is 2.25.

For KSPIAPCSLDKRVFLIFHCEFSSE, the protein stability index stood at 2.94.

In the case of KSPIAPCSLDKRVMLIFHCEFSSE, the protein stability index turned out to be 2.35.

Take KSQIAPCSLDKRVILIFHCEFSSE: the protein stability index was determined as 3.1.

As to KSAIAPCSLDKRVILIFHCEFSSE, the protein stability index is 2.25.

Regarding KSTIAPCSLDKRVILIFHCEFSSE, the protein stability index is 2.17.

On to KSWIAPCSLDKRVILIFHCEFSSE, for which the protein stability index was 2.17.

For the variant KSHIAPCSLDKRVILIFHCEFSSE, the protein stability index is 2.63.

For KSLIAPCSLDKRVILIFHCEFSSE, the protein stability index turned out to be 3.29.

With KSNIAPCSLDKRVILIFHCEFSSE, the protein stability index came to 2.73.

On to KSMIAPCSLDKRVILIFHCEFSSE, for which the protein stability index was found to be 3.46.

Consider KSGIAPCSLDKRVILIFHCEFSSE, for which the protein stability index is 1.9.

KSIIAPCSLDKRVILIFHCEFSSE: the protein stability index was determined as 2.38.

As to KSPIAPLSLDKRVILIFHCEFSSE, the protein stability index was 3.92.

In the case of KSPIAPMSLDKRVILIFHCEFSSE, the protein stability index worked out at 2.15.

Turning to KSPIAPASLDKRVILIFHCEFSSE, the protein stability index came out at 2.03.

Regarding KSPIAPRSLDKRVILIFHCEFSSE, the protein stability index turned out to be 3.39.

Regarding KSPIAPPSLDKRVILIFHCEFSSE, the protein stability index is 2.65.

On to KSPIAPHSLDKRVILIFHCEFSSE, for which the protein stability index amounted to 3.31.

KSPIAPNSLDKRVILIFHCEFSSE: the protein stability index is 2.54.

KSPIAPKSLDKRVILIFHCEFSSE: the protein stability index stood at 2.56.

KSPIAPSSLDKRVILIFHCEFSSE: the protein stability index worked out at 2.13.

Turning to KSPIAPTSLDKRVILIFHCEFSSE, the protein stability index was determined as 2.55.

As to KSPIAPGSLDKRVILIFHCEFSSE, the protein stability index was 2.4.

Consider KSPIAPQSLDKRVILIFHCEFSSE, for which the protein stability index was 2.01.

On to KSPIAPISLDKRVILIFHCEFSSE, for which the protein stability index amounted to 3.17.

Take KSPIAPVSLDKRVILIFHCEFSSE: the protein stability index stood at 3.75.

Regarding KSPNAPCSLDKRVILIFHCEFSSE, the protein stability index came to 2.64.

Consider KSPFAPCSLDKRVILIFHCEFSSE, for which the protein stability index came out at 2.53.

As for KSPHAPCSLDKRVILIFHCEFSSE, the protein stability index amounted to 1.94.

On to KSPDAPCSLDKRVILIFHCEFSSE, for which the protein stability index came out at 1.16.

With KSPWAPCSLDKRVILIFHCEFSSE, the protein stability index worked out at 2.72.

For KSPKAPCSLDKRVILIFHCEFSSE, the protein stability index was found to be 3.59.

As for KSPYAPCSLDKRVILIFHCEFSSE, the protein stability index was determined as 3.53.

Regarding KSPMAPCSLDKRVILIFHCEFSSE, the protein stability index was determined as 4.09.

For KSPGAPCSLDKRVILIFHCEFSSE, the protein stability index stood at 4.68.

As for KSPPAPCSLDKRVILIFHCEFSSE, the protein stability index is 2.2.

As for KSPSAPCSLDKRVILIFHCEFSSE, the protein stability index was determined as 2.89.

The variants in the next data set derive from B2. The data set is described as above. The following applies: c terminus: a fixed tail appended.
In the case of YVTTNVSLIPPRSEQLVNFTGKAK, the protein stability index was determined as 1.88.

On to YVTTNVSLIPPRSEQLVNFTGKAQ, for which the protein stability index was 2.06.

YVTTNVSLIPPRSEQLVNFTGKAW: the protein stability index turned out to be 2.93.

Take YVTTNVSLIPPRSEQLVNFTGKAT: the protein stability index amounted to 2.75.

YVTTNVSLIPPRSEQLVNFTGKAV: the protein stability index worked out at 1.41.

As to YVTTNVSLIPPRSEQLVNFTGKAN, the protein stability index worked out at 2.92.

As to YVTTNVSLIPPRSEQLVNFTGKAG, the protein stability index worked out at 1.64.

As for YVTTNVSLIPPRSEQLVNFTGKAS, the protein stability index was determined as 2.1.

On to YVTTNVSLIPPRSEQLVNFTGKAI, for which the protein stability index came to 2.32.

YVTTNVSLIPPRSEQLVNFTGKAP: the protein stability index is 3.06.

For the variant YVTTNVSLIPPRSEQLVNFTGKAM, the protein stability index was 2.05.

With YVTTNVSLIPPRSEQLVNFTGKAL, the protein stability index is 2.08.

On to YVTTNVSLIPPRSEQLVNFTGKAY, for which the protein stability index worked out at 2.7.

Take YVTTNVSLIPPRSEQLVNFTGKAH: the protein stability index turned out to be 1.49.

With YVTTNVSLIPPRSEQLVNFTGKAR, the protein stability index came out at 1.48.
